As usually defined, the Kd is the constant that tells how readily two partners part at equilibrium.

The results in this text go back to publication PMC7582325, “How Human H1 Histone Recognizes DNA” (Molecules, 2020).

The chains are these.
B1: ODN2 (ssDNA)
DNA: AGTGCCTGACCGTCGTCGAC
B2: ODNcom2 (ssDNA)
DNA: GTCGACGACGGTCAGGCACT
B3: 10-mer d(TCCCATCAAA) (ssDNA)
DNA: TCCCATCAAA
B4: d(pA)8 (ssDNA)
DNA: AAAAAAAA
modifications: 5' phosphate
B5: d(pATG) (ssDNA)
DNA: ATG
modifications: 5' phosphate
B6: d(pT)6 (ssDNA)
DNA: TTTTTT
modifications: 5' phosphate
B7: d(pC)10 (ssDNA)
DNA: CCCCCCCCCC
modifications: 5' phosphate
B8: d(pA)10 (ssDNA)
DNA: AAAAAAAAAA
modifications: 5' phosphate
B9: ODN1 (ssDNA)
DNA: CAGACGATCAGCGACGCGTC
B10: 10-mer d(TAAAATCAAA) (ssDNA)
DNA: TAAAATCAAA
B11: d(pT)10 (ssDNA)
DNA: TTTTTTTTTT
modifications: 5' phosphate
B12: d(pA)5 (ssDNA)
DNA: AAAAA
modifications: 5' phosphate
B13: d(pA)16 (ssDNA)
DNA: AAAAAAAAAAAAAAAA
modifications: 5' phosphate
B14: d(pC)8 (ssDNA)
DNA: CCCCCCCC
modifications: 5' phosphate
B15: d(pA)6 (ssDNA)
DNA: AAAAAA
modifications: 5' phosphate
B16: 10-mer d(TATAATCTTA) (ssDNA)
DNA: TATAATCTTA
B17: d(pT)16 (ssDNA)
DNA: TTTTTTTTTTTTTTTT
modifications: 5' phosphate
B18: d(pT)12 (ssDNA)
DNA: TTTTTTTTTTTT
modifications: 5' phosphate
B19: d(pC)6 (ssDNA)
DNA: CCCCCC
modifications: 5' phosphate
B20: d(pC)12 (ssDNA)
DNA: CCCCCCCCCCCC
modifications: 5' phosphate
B21: d(pT)20 (ssDNA)
DNA: TTTTTTTTTTTTTTTTTTTT
modifications: 5' phosphate
B22: d(pA)4 (ssDNA)
DNA: AAAA
modifications: 5' phosphate
B23: d(pC)5 (ssDNA)
DNA: CCCCC
modifications: 5' phosphate
B24: d(pT)8 (ssDNA)
DNA: TTTTTTTT
modifications: 5' phosphate
B25: 12-mer hetero-ON, unlabeled competitor (ssDNA)
DNA: TAGAAGATCAAA
B26: d(pT)4 (ssDNA)
DNA: TTTT
modifications: 5' phosphate
B27: d(pA)12 (ssDNA)
DNA: AAAAAAAAAAAA
modifications: 5' phosphate
B28: d(pT)5 (ssDNA)
DNA: TTTTT
modifications: 5' phosphate
B29: d(pA)20 (ssDNA)
DNA: AAAAAAAAAAAAAAAAAAAA
modifications: 5' phosphate
B30: ODNcom1 (ssDNA)
DNA: GACGCGTCGCTGATCGTCTG
B31: ODN1 x ODNcom1 (dsDNA)
DNA 1: CAGACGATCAGCGACGCGTC
DNA 2: GACGCGTCGCTGATCGTCTG
B32: d(pA)16 x d(pT)16 (dsDNA)
DNA 1: AAAAAAAAAAAAAAAA
DNA 2: TTTTTTTTTTTTTTTT
modifications: 5' phosphate
B33: d(pA)20 x d(pT)20 (dsDNA)
DNA 1: AAAAAAAAAAAAAAAAAAAA
DNA 2: TTTTTTTTTTTTTTTTTTTT
modifications: 5' phosphate
B34: d(pA)12 x d(pT)12 (dsDNA)
DNA 1: AAAAAAAAAAAA
DNA 2: TTTTTTTTTTTT
modifications: 5' phosphate
B35: ODN2 x ODNcom2 (dsDNA)
DNA 1: AGTGCCTGACCGTCGTCGAC
DNA 2: GTCGACGACGGTCAGGCACT
B36: d(pA)3 + d(pT)3 mixture (mixed)
?: AAA
DNA: TTT
modifications: 5' phosphate
B37: d(pA)6 + d(pT)6 mixture (mixed)
?: AAAAAA
DNA: TTTTTT
modifications: 5' phosphate
B38: 12-mer hetero-ON 32P probe (ssDNA)
DNA: TAGAAGATCAAA
modifications: 5' phosphate (32P)

T2 sequence (P07305 2-194): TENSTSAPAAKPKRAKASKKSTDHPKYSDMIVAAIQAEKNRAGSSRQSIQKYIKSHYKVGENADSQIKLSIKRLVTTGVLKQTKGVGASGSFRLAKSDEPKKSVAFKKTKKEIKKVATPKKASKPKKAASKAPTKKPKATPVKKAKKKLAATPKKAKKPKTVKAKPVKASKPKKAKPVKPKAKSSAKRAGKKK

For the first series, the target named is T1, histone H1° (H1.0) (Homo sapiens, UniProt P07305 1-194). Kind of series: competition filter binding (I50); 5 mM Mg2+; 20 mM Tris-HCl pH 7.5, 5 mM MgCl2, 1 mM EDTA, 0.3 mg/mL H1, 1 h at 20 C; nitrocellulose filters; competition against 12.0 uM 32P 12-mer; mononucleotides dAMP/dCMP/dTMP not listed. Particulars: protein: commercial.
T1 sequence (P07305 whole entry): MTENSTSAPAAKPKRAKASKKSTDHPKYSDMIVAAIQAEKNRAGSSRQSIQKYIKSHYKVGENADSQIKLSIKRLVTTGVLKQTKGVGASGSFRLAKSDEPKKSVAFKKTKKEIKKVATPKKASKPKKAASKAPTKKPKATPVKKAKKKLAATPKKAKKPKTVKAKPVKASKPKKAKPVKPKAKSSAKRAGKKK
In turn, B1 showed a dissociation constant (Kd) of 3.8 µM.
Regarding B2, binding was characterised by a dissociation constant (Kd) of 4.1 µM.
The same measure, in the same setting: under B3 stands 30 µM; under B4, 48 µM; under B5, 1500 µM.
Take B6: the equilibrium dissociation constant (Kd) amounted to 48 µM.
B7 came in with a dissociation constant Kd of 25 µM.
B8 registered a Kd of 28 µM.
For B9, binding was put at a Kd of 4 µM.
Molecule B10 showed a dissociation constant (Kd) of 30 µM.
The same measure, in the same setting: as for B11, the figure is 25 µM.
B12 returned a Kd of 70 µM.
B13 registered a Kd of 10 µM.
B14: the Kd turned out to be 34 µM.
In the case of B15, the Kd was found to be 57 µM.
Consider B16, for which the dissociation constant Kd was determined as 28 µM.
B17 displayed a Kd of 5 µM.
On to B18, for which the Kd stood at 10 µM.
Still for that read-out and setting: as for B19, the figure is 61 µM; as for B20, 20 µM; as for B21, 4.6 µM.
Regarding B22, the Kd came to 240 µM.
The molecule B23 yielded a Kd of 300 µM.
B24 showed a dissociation constant (Kd) of 76 µM.
Turning to B25, the Kd stood at 12 µM.
The same measure, in the same setting: under B26 stands 96 µM; under B27, 14 µM.
B28: the dissociation constant Kd was found to be 75 µM.
On the same count and under the same terms, under B29 stands 10 µM; under B30, 3.7 µM.

Still in this series, the particulars now being: protein: commercial; blunt.
Molecule B31 yielded a Kd of 2.7 µM.
B32 showed a Kd of 3.8 µM.
Take B33: the dissociation constant Kd was found to be 3 µM.
Consider B34, for which the Kd stood at 7.5 µM.
Regarding B35, the Kd was determined as 2.9 µM.

Still in this series, the particulars now being: protein: commercial; mixture of complementary strands, not a preformed duplex.
Consider B36, for which the Kd came out at 1000 µM.
Take B37: the Kd was 55 µM.

The target of the next series is T1, histone H1° (H1.0). Kind of series: filter binding; 5 mM Mg2+; 20 mM Tris-HCl pH 7.5, 5 mM MgCl2, 1 mM EDTA, 0.3 mg/mL H1, 1 h at 20 C; nitrocellulose filters; competition against 12.0 uM 32P 12-mer; mononucleotides dAMP/dCMP/dTMP not listed. Particulars: protein: commercial; label: 5'-32P.
Molecule B38 came in with a Kd of 12 µM.

Another series addresses T2, H1° histone (human recombinant; H1 histone) (Homo sapiens, UniProt P07305).
T2 construct: gene H1-0; commercial recombinant human H1° (BioLabs M2501S), free histone
Kind of series: competition with […]'-[…]TAGAAGATCAAA, nitrocellulose filter binding. Particulars: 20 mM Tris-HCl pH 7.5, 5 mM MgCl2, 1 mM EDTA, 20 °C, 0.3 mg/mL H1; Kd taken as I50 with 12 µM labelled 12-mer (its Kd); error not above 10–12%.
`Nc1ccn([C@H]2C[C@H](O)[C@@H](COP(=O)(O)O)O2)c(=O)n1` [dCMP]: the Kd came to 10000 µM.
Consider `Cc1cn([C@H]2C[C@H](O)[C@@H](COP(=O)(O)O)O2)c(=O)[nH]c1=O` [dTMP], for which the Kd was 13000 µM.
Same read-out and setting: under `Nc1ncnc2c1ncn2[C@H]1C[C@H](O)[C@@H](COP(=O)(O)O)O1` [dAMP] stands 16000 µM.

A further series has as its target T1, histone H1° (H1.0). The series is described as follows: competition filter binding (I50). Particulars: 5' phosphate; 20 mM Tris-HCl pH 7.5, 5 mM MgCl2, 1 mM EDTA, 0.3 mg/mL H1, 1 h at 20 C; nitrocellulose filters; competition against 12.0 uM 32P 12-mer; mononucleotides ….
In turn, d(pC)2 yielded a Kd of 4400 µM.
